Data: PMC7854685, “Histone Parylation factor 1 contributes to the inhibition of PARP1 by cancer drugs” (Nature Communications, 2021)
“And” between values parts separate entries of the source, which are not always exact repeats. Equal entries are not always repeated. “Also recorded” adds a separate entry of the source. Where two headings read alike, the source gives them in different places.

B1: HPF1: Histone PARylation factor, protein that binds PARP1 and PARP2 and provides the catalytic base Glu284 (protein)
chain: LRKEVENHYKLSLPEDFYHFWKFCEELDPEKPSDSLSASLGLQLVGPYDILAGKHKTKKKSTGLNFNLHWRFYYDPPEFQTIIIGDNKTQYHMGYFRDSPDEFPVYVGINEAKKNCIIVPNGDNVFAAVKLFLTKKLREITDKKKINLLKNIDEKLTEAARELGYSLEQRTVKMKQRDKKVVTKTFHGAGLVVPVDKNDVGYRELPETDADLKRICKTIVEAASDEERLKAFAPIQEMMTFVQFANDECDYGMGLELGMDLFCYGSHYFHKVAGQLLPLAYNLLKRNLFAEIIEEHLANRSQENIDQLAA
modifications: Alexa647 C2 maleimide label (extent of labeling typically 50-100%); left off: His tag (inferred from the nickel affinity column), end not stated, state not stated
B2: F280A mutant of HPF1: F280A mutant of HPF1 (protein)
chain: LRKEVENHYKLSLPEDFYHFWKFCEELDPEKPSDSLSASLGLQLVGPYDILAGKHKTKKKSTGLNFNLHWRFYYDPPEFQTIIIGDNKTQYHMGYFRDSPDEFPVYVGINEAKKNCIIVPNGDNVFAAVKLFLTKKLREITDKKKINLLKNIDEKLTEAARELGYSLEQRTVKMKQRDKKVVTKTFHGAGLVVPVDKNDVGYRELPETDADLKRICKTIVEAASDEERLKAFAPIQEMMTFVQAANDECDYGMGLELGMDLFCYGSHYFHKVAGQLLPLAYNLLKRNLFAEIIEEHLANRSQENIDQLAA

Legend:
PARP1 = molecular target: T1, PARP1 (Homo sapiens, UniProt P09874); assay: Rate of autoPARylation k2[NAD+] (DNA release without PARPi) in presence or absence of HPF1; assay type: biochemical
T1 construct: Wild-type PARP1 and PARP2 were expressed and purified as previously described; made in house
T1 sequence (P09874 whole entry): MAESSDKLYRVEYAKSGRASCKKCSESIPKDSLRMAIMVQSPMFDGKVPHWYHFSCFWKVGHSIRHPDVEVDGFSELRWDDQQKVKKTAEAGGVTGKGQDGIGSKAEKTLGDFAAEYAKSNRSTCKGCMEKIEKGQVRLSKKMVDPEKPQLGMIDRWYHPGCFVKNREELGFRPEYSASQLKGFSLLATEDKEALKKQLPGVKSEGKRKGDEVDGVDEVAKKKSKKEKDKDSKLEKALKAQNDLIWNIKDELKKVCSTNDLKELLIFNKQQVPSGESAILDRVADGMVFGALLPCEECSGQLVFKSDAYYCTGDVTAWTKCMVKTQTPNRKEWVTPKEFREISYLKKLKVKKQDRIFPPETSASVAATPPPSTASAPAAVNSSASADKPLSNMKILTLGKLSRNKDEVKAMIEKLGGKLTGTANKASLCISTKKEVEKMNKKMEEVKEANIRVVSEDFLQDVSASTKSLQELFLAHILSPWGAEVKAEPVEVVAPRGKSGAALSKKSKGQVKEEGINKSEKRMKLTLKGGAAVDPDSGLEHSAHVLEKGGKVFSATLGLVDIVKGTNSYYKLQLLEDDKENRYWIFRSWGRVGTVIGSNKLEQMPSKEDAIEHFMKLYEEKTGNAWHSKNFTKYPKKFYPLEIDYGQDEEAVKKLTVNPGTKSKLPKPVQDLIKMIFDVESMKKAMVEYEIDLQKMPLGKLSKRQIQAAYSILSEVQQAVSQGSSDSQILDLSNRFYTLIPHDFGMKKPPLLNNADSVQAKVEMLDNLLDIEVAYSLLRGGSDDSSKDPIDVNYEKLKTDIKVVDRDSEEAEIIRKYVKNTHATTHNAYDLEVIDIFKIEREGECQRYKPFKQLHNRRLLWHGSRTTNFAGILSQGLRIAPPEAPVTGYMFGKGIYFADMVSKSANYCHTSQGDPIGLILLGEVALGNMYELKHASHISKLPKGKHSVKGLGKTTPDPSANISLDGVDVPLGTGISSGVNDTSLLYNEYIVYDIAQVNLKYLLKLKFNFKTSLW
Experimental: (§1) Next, 10 µL of PARP1 or PARP2 (10 nM) premixed with fluorescein labeled p18mer DNA (5 nM), was added to the various dilutions of PARPi and then incubated for 30 min to ensure complete association. Dissociation of labeled DNA was initiated by addition of 10 µL of NAD^+ (2 mM). All concentrations cited are final concentrations in a volume of 30 µL. […] Kinetic data for a range of different PARPi (20–500 nM) were exported to Prism (GraphPad) and were globally fitted to individual exponentials1 y=y0−y∞*e^−kobsx+y0 with the constraints that y0 (the value of the FP signal at t = 0) and y∞ (the value of the FP signal at t = ∞) are shared for all concentrations of PARPi. […] We emphasize that the same correction is applied to the data for all PARPi.

[1] = molecular target: PARP1 - Nuc165 / PARP1 - p18mer complex (Homo sapiens, UniProt P09874); assay: FRET assay of Alexa647-HPF1 binding to Alexa488-PARP1 with p18mer DNA or Nuc165, with or without olaparib; settings: for Kd: read-out: KD of HPF1
Sequence of PARP1 - Nuc165 / PARP1 - p18mer complex (P09874 whole entry): as above
Sequence of PARP1 - Nuc165 / PARP1 - p18mer complex (Q9NWY4 whole entry partner): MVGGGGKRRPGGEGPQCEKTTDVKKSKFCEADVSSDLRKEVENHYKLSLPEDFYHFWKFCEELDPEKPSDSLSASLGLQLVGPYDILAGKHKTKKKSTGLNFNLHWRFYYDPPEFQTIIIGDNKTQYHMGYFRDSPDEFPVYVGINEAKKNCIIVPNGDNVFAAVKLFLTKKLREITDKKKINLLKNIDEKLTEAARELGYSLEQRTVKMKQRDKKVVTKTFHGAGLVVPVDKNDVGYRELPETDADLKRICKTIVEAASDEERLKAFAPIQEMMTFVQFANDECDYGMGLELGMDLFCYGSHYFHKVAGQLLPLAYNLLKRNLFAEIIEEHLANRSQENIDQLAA
Experimental: Excess unincorporated dye from PARP1 was removed by gel filtration chromatography (S-200). The extent of labeling, defined as the ratio of the molar concentration of dye vs. protein, was determined by UV-Vis spectroscopy and was typically 50–100%. […] All concentrations reflect final concentrations in the plate and all samples were diluted in binding buffer. […] Raw fluorescence intensity values were used to correct the FRET signal for the donor bleed-through and for the acceptor direct excitation, as previously described[43].

PARP2 = molecular target: T2, PARP2 (Homo sapiens, UniProt Q9UGN5); assay: Rate of autoPARylation k2[NAD+] (DNA release without PARPi) in presence or absence of HPF1; assay type: biochemical
T2 construct: Wild-type PARP1 and PARP2 were expressed and purified as previously described; made in house
T2 sequence (Q9UGN5 whole entry): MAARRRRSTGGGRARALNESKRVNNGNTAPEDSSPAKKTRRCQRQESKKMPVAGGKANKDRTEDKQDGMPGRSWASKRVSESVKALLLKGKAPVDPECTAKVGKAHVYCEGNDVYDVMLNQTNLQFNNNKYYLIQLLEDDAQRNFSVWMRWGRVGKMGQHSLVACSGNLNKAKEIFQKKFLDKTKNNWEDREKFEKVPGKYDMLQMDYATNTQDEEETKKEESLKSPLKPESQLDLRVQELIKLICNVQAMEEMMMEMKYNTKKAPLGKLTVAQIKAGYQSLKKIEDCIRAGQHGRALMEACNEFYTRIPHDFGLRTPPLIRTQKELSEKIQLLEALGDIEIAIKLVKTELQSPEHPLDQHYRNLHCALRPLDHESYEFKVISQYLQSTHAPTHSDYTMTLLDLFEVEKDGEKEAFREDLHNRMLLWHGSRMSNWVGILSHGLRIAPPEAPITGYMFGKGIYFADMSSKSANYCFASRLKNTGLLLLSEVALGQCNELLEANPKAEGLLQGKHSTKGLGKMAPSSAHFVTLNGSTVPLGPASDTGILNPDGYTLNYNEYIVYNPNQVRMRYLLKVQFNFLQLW
Experimental: as §1

Molecule	kobs (individual replicates) (PARP1; PARP1 +HPF1, no PARPi)	kobs(+HPF1) (PARP1; PARP1, no PARPi, 2 mM NAD+) [s⁻¹]	factor tighter binding to PARP1—Nuc165 than to PARP1—p18mer ([1]; no olaparib)	Kd ([1]; PARP1 – p18mer complex, in the presence of olaparib (1 µM)) [nM]	Kd ([1]; PARP1—Nuc165 complex, in the presence of olaparib (1 µM)) [nM]	Kd ([1]; PARP1—Nuc165 complex, no olaparib) [nM]	kobs (PARP2; PARP2 + HPF1, replicate fits of the fluorescence polarization time traces (time in s) of sheet SuppFig4CD)	kobs(+HPF1) (PARP2; PARP2, no PARPi, 2 mM NAD+) [s⁻¹]	binding to PARP1 – Nuc165 complex ([1]; FRET)
B1	0.019 and 0.025 and 0.031	0.025 ± 0.006	5	1200 ± 500	229 ± 55	790 ± 147	0.09827 and 0.07689 and 0.09446	0.090 ± 0.011	
B2									does not bind; also recorded: failed to bind
